Settings: Bacillus caldolyticus; pH 7; 25 °C; GdnHCl; Fluorescence; sodium cacodylate 100 mM; reversible: yes; whole UniProt chain shown

B1: Cold shock protein CspB wild type, P41016 (protein)
chain: MQRGKVKWFNNEKGYGFIEVEGGSDVFVHFTAIQGEGFKTLEEGQEVSFEIVQGNRGPQAANVVKL
denaturant m value: 1.53 kcal/mol/M | denaturant midpoint (higher = more stable): 2.36 M | unfolding free energy: 3.63 kcal/mol

Reference: FireProtDB (doi:10.1016/j.jmb.2003.11.050)
